Results published in US20060142201A1.

Tests used:
[1] = target: human noradrenaline transporter (hNET) (human) (UniProt P23975); assay: cell-based or functional assay
[2] = target: human noradrenaline transporter (hNET) (human) (UniProt P23975)

Sequence of human noradrenaline transporter (hNET) (human) (P23975 whole entry): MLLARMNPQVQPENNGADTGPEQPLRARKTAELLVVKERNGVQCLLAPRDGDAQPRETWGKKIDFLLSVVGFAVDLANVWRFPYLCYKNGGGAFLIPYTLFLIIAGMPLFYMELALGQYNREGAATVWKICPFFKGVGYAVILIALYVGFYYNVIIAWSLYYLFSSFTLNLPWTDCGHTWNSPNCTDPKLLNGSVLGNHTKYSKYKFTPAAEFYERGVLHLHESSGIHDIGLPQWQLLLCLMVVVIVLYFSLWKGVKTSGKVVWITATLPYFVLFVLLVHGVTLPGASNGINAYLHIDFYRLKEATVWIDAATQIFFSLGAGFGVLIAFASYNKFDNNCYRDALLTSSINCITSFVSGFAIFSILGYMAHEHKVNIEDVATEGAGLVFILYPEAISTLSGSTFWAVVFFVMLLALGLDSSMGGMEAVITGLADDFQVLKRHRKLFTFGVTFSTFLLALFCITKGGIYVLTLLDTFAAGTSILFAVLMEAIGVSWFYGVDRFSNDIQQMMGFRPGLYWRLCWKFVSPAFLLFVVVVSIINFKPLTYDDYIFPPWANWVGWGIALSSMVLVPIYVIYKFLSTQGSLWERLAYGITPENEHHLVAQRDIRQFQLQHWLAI

| Substance | Ay log IC50 for inhibition of 3H-NA through hNET [1] [log M] | Ay log IC50 for displacement of 3H-nisoxetine from hNET [2] [log M] |
| --- | --- | --- |
| χ-MrIA (SEQ ID NO. 1) (peptide) | -6.3 |  |
| χ-MrIA (SEQ ID NO. 1) (peptide; other documents disagree on this pair) |  | -5.14 |
